Experiment [1] deals with HAdV-51p. The experiment is described as follows: Virus-defensin binding assay, HAdV-51p. Further details: species or system human adenovirus. From the text:
(§1) Figure 2 HD5 binding to HAdV. A) HD5 binding to a representative defensin-sensitive serotype (HAdV-5) was quantified by an equilibrium-binding assay. Data are the mean of the number of HD5 molecules bound per virion at the indicated HD5 concentrations from at least three independent experiments ± SD. Binding curves were fitted using Prism software. B) Binding of HD5 to additional defensin-sensitive (HAdV-7p) and resistant (HAdV-19c, -25p, -51p) serotypes expressed as a percent of HD5 bound to HAdV-5. Data are the mean of two or three independent experiments ± SD.
(§2) We assessed HD5 binding to additional serotypes after incubation with 20 µM HD5 (Figure 2B). The sensitive serotype HAdV-7p bound 69.3±15.9% of the amount of HD5 bound to HAdV-5 in parallel samples; whereas, the corresponding values for the resistant serotypes HAdV-19c, -25p, and -51p were 32.5±7.5%, 3.3±5.8%, and 24.6±12.0%, respectively.
(§3) To measure HD5 binding to HAdV-5 and -51, HD5 was serially diluted in PBS and mixed with 5 µg purified virus. […] The other half of each sample was used to make a standard curve for quantification. […] Virus bands were quantified using ImageQuant NT software (GE Healthcare). […] The amount of HD5 in the centrifuged samples was then quantified against the standard curve using Prism software. […]

In experiment [2] the test system is HAdV species B1. The experiment is described as follows: Infection assay (hexon staining), HAdV species B1. The following applies: 15 µM HD5, A549 cells, hexon staining at ~48 h, vs. no defensin. Format: cell-based, human adenovirus. The method, then: (§4) To determine whether sensitivity to α-defensins is a general property of HAdVs, serotypes representative of HAdV species A–F were tested for infectivity in the presence of 15 µM HD5 or HNP1 (Figure 1). Wild type HAdVs rather than vectors were used for these studies, and infectivity was assessed by staining for hexon production. […] These studies indicate that sensitivity to α-defensins is species specific. In addition, particular HAdV serotypes are not equally sensitive to all defensins, indicating defensin sequence specificity as well.
(§5) Figure 1 Sensitivity to neutralization by alpha-defensins is AdV species specific. HAdVs were incubated with 15 µM HD5 (A) or HNP1 (B) and assessed for infectivity on A549 cells. Data are the mean of the percent infectivity compared to control cells infected with each virus in the absence of defensin for at least three independent experiments ± SD. The upper limit for quantification of this assay is 200%. […]
(§6) Prior to use in this assay, each virus stock was titrated on A549 cells. […] In parallel, wells were infected with two-fold serial dilutions of each virus to establish a standard curve for quantification with an upper limit of 200%. […] Total well fluorescence above background was quantified with ImageJ software. For each virus, samples were quantified by nonlinear regression against the standard curve using Prism software (GraphPad Software, Inc., La Jolla, CA).

In experiment [3] the test system is HAdV-5 capsid. As to conditions: previous observation; cited from earlier work. From the text: Therefore, we considered which of the multiple binding sites visualized by cryoEM might lead to enhanced virion stability. We reasoned that we might find a negatively charged region o ... || Based on our combined functional and structural studies, we propose a model for neutralization in which α-defensins bind to critical capsid determinants at the point of contact between fiber and penton base, thereby preventing fiber release. One implication of this model is that fiber dissociation is absolutely required for subsequent uncoating events. This model cannot distinguish between the dissociation of fiber and penton base from the capsid independently or together as a complex. In the first case, defensin may actively lock the fiber onto the penton base. Alternatively, HD5 may obstruct ...

The subject of experiment [4] is HAdV-F serotypes. The experiment is described as follows: Infection assay (hexon staining), HAdV species F. In kind it is cell-based, human adenovirus. The following applies: 15 µM HD5, A549 cells, hexon staining at ~48 h, vs. no defensin; upper limit 200%. The method, then:
as §4, §5, §6

Experiment [5] deals with HAdV species E. The experiment is described as follows: Infection assay (hexon staining), HAdV species E. The following applies: 15 µM HD5, A549 cells, hexon staining at ~48 h, vs. no defensin. In kind it is cell-based, human adenovirus. The protocol: as §4, §5, §6
Experiment [6] relates to 19cF. The experiment is described as follows: Virus-defensin binding assay, 19cF. Further details: species or system human adenovirus. As to conditions: studies equivalent to Figure 2B, data not shown. The method, then:
(§7) We then combined the GYAR substitution with the PB substitution in a single construct (PB/GYAR).
To measure HD5 binding to HAdV-5 and -51, HD5 was serially diluted in PBS and mixed with 5 µg purified virus. After 1 h incubation on ice, one half of each sample was separated by ultracentrifugation [209,000×g (avg.) for 2 hrs at 4°C] on a discontinuous gradient consisting of 300 µl of 30% nycodenz and 200 µl of 80% nycodenz in 50 mM NaCl, 20 mM HEPES pH 7.4 using an SW55ti rotor with adaptors (Beckman Coulter, Inc.). The visible virus band was collected. The other half of each sample was used to make a standard curve for quantification. All samples were boiled in reducing loading buffer and separated using a 16% PAGEgel (Expedeon, Inc., San Diego, CA) or 10–20% Tris-Tricine gel (Bio-Rad, Hercules, CA). The gels were stained with Deep Purple (GE Healthcare) and imaged on a Typhoon Trio. Virus bands were quantified using ImageQuant NT software (GE Healthcare). The amount of HD5 in each sample was normalized to protein V and hexon. The amount of HD5 in the centrifuged samples was then quantified against the standard curve using Prism software. Affinity and stoichiometry were estimated from the average data of at least three independent experiments using Prism software.

For experiment [7], the system named is HAdV-19c. The experiment is described as follows: Virus-defensin binding assay, HAdV-19c. Further details: species or system human adenovirus.
Description: as §1, §2, §3

Experiment [8] deals with PB/GYAR. The experiment is described as follows: Infection assay, PB/GYAR virus chimera. In kind it is cell-based, human adenovirus. The protocol: Figure 6 Neutralization determinants are located in fiber and penton base. A) Schematic of chimeric viruses. Capsid proteins are depicted in the order in which they are encoded in the virus genome for HAdV-5 (white) and HAdV-19c (grey). The variable residues in fiber (GYAR and DTET) are indicated for each construct. B) Each of the chimeric viruses was incubated with 5 µM (grey) or 10 µM (black) HD5 and assessed for infectivity on A549 cells. Data are the mean of the percent infectivity compared to control cells infected with each virus in the absence of defensin for at least three independent experiments ± SD. The upper limit for quantification of this assay is 200%.
as §7
Prior to use in this assay, each virus stock was titrated on A549 cells. A virus concentration was chosen to produce 50–70% maximal signal in the absence of defensin as described below. […] In parallel, wells were infected with two-fold serial dilutions of each virus to establish a standard curve for quantification with an upper limit of 200%. […] Total well fluorescence above background was quantified with ImageJ software. For each virus, samples were quantified by nonlinear regression against the standard curve using Prism software (GraphPad Software, Inc., La Jolla, CA).

[9] abbreviates: 20 µM HD5, mean of two or three independent experiments ± SD.

Entries after “also recorded” stand apart in the source; their conditions may differ.

B1: HD5: human alpha-defensin; synthetic, obtained from Peptides International; three disulfide bonds (PDB 1ZMP) (peptide, UniProt Q01523 20-94, looked up)
Defensin alpha 5: ESLQERADEATTQKQSGEDNQDLAISFAGNGLSALRTSGSQARATCYCRTGRCATRESLSGVCEISGRLYRLCCR
modifications: Defensin-5
As to B1, the “HD5 bound, percent of HD5 bound to HAdV-5” value in experiment [1] (setting [9]) is given as 24.6±12.0%; in experiment [7] (setting [9]), 32.5±7.5%. The “level of HD5 binding (in words)” value in experiment [1] (HAdV-51p) and in experiment [7] (HAdV-19c) was “only a low level of binding” in each case. The “sensitivity to neutralization (infectivity)” value in experiment [2] is reported as “sensitive”; in experiment [4], “completely resistant to HD5-mediated neutralization and, in most cases, infection is actually enhanced”; in experiment [5], “sensitive”. For the same molecule, the “effect on capsid proteins upon exposure to heat” value in experiment [3] was “stabilizes the capsid and prevents dissociation of capsid proteins, including fiber, upon exposure to heat”. In addition, the “amount of HD5 bound compared to HAdV-5” value in experiment [6] is “did not detect a reduction in the amount of HD5 bound; also recorded: did not result in a noticeable reduction in overall HD5 binding”. Further, in experiment [8] (5 µM and 10 µM HD5, A549 cells, at least three independent experiments), the “sensitivity to HD5 neutralization” value was “completely resistant to neutralization”. Further, the “defensin-resistance at higher HD5 concentration” value in experiment [8] (20 µM HD5, data not shown) is “confirmed the defensin-resistance”.

The record behind these values is PMC2891831, “Insight into the Mechanisms of Adenovirus Capsid Disassembly from Studies of Defensin Neutralization” (PLoS Pathogens, 2010).
